These results are taken from US20060134801A1, “Methods and compositions involving MDA-7” (Board of Regents, The University of Texas System, priority 2003, published 2006).

Holding throughout (type): cell-based, human
One data set concerns HUVEC. The experiment in a line: Endothelial cell migration assay (Transwell, VEGF). The settings on record: VEGF 100 ng/ml. As to the method: Cell migration assays were performed using HUVEC. Cells were starved overnight in basal medium containing 0.5% fetal bovine serum, collected, resuspended in the same medium, and seeded at a concentration of 10^5 cells/well on the upper surface of a 24-well transwell insert with a pore size of 8 μm (Millipore, Cambridge, Mass.). The insert was placed in a six-well plate that contained medium plus PBS, medium plus VEGF (100 ng/ml) or VEGF plus sMDA-7 (10 or 50 ng/ml). The plates containing the transwell insert were incubated at 37° C. overnight to allow migration. The next day, the wells were disassembled, membranes were fixed in crystal violet, and the number of cells that had migrated to the lower wells was counted under high-power magnification (×40).

For a further data set, the system named is STAT-3. The data set can be described thus: STAT-3 activation, western blot and immunofluorescence. The settings on record: HUVEC; 10 ng/ml; 4 h to 24 h. As to the method: Therefore, studies were conducted to determine the activation of STAT-3 expression in endothelial cells after treatment with sMDA-7. HUVEC were seeded in 6-well plates (5×10^5 cells/well) and treated with sMDA-7 (10 ng/ml). Untreated cells served as negative controls. Cells were harvested at 4 h and 24 h after treatment and analyzed for STAT-3 expression by western blot analysis as previously described (Mhashilkar et al., 2001; Pataer et al., 2002). […] (pSTAT-3) protein was detected using rabbit anti-human pSTAT-3 antibody (1:1000, Cell Signaling Technology, Beverly, Mass.) and horseradish peroxidase-labeled secondary antibody (Amersham Biosciences, Piscataway, N.J.). Finally, the proteins were visualized on enhanced chemiluminescence film (Hyperfilm, Amersham Biosciences, Piscataway, N.J.) by application of Amersham's enhanced chemiluminescence western blotting detection system. STAT-3 protein expression level was quantitated after normalization with total STAT-3 protein expression using Image Quant software (Molecular Dynamics, Amersham Pharmacia Biotech, Piscataway, N.J.).
Activation of STAT-3 was also determined by immunofluorescence assay. […] Pictures were taken through a fluorescence microscope 1-2 h after staining.
On the technique in general: Immunoblotting shows a protein as a band on a membrane.

Data set [1] relates to A549 cells and CCD16 cells. The experiment in a line: Clonogenic survival with MDA-7 conditioned medium and radiation. The settings on record: 10 ng/ml. As to the method: FIG. 60. Clonogenic survival of A549 cells (A) and CCD16 cells (B). Cells were serum starved for 12 hours and treated with conditioned medium containing mda7 protein (10 ng/ml). Twelve hours later, cells were irradiated, harvested and plated in regular medium. After incubation for 14 days, colonies were counted and survival.
Twelve hours after seeding HUVECs in 4-well plates (Nunc, Roskilde, Denmark), medium was replaced with serum/growth factor-free medium. After serum/growth factor starvation for 12 hours, cells were treated with complete medium containing either MDA-7 protein (10 ng/ml) (removed from cultures of 293 cells), angiostatin (100 ng/ml), or endostatin (100 ng/ml). Twelve hours later, cells were irradiated with ^137CS unit (3.4 Gy/min) at room temperature, trypsinized and counted. Known numbers of cells were replated in 60 mm culture dishes and incubated to allow macroscopic colony development. Colonies were counted after 14 days, and the percent plating efficiency and surviving fractions following given treatments were calculated based on the survival of non-irradiated cells.

In a further data set the test system is melanoma cell lines. The experiment in a line: Trypan blue viability, melanoma cell lines (panel). An excerpt:
rhMDA-7 (IL-24) protein was purified from 293-mda7 cells using affinity chromatography. Various lots of protein ranged from 30% ->80% purity based upon silver stain. The rhMDA-7 protein was applied to melanoma cell lines, and cells assessed for viability using the Trypan blue assay. […] Treatment of melanoma cells with rhMDA-7 results in rapid activation (via phosphorylation) of STAT3. The cytotoxicity observed in melanoma cells is inhibited by anti-MDA-7 antibodies.
The mechanism of the anti-tumor activity of rhMDA-7 was also evaluated. Melanoma cells were treated with rhMDA-7 protein and assessed for apoptosis using the TUNEL assay. […] These studies were performed with purified rhMDA-7 protein. The melanoma cells have also been treated with supernatant from 293-mda7 cells or control 293 cells. Only the 293-mda7 supernatant causes cell killing.

B1: sMDA-7: soluble secreted human MDA-7 (IL-24) protein purified from stably transfected 293-mda-7 cells (protein)
chain: AQGQEFHFGPCQVKGVVPQKLWEAFWAVKDTMQAQDNITSARLLQQEVLQNVSDAESCYLVHTLLEFYLKTVFKNYHNRTVEVRTLKSFSTLANNFVLIVSQLQPSQENEMFSIRDSAHRRFLLFRRAFKQLDVEAALTKALGEVDILLTWMQKFYKL
As to B1, in the data set with HUVEC, the “concentration giving complete inhibition of migration” value was determined as 50 ng/mL and the “endothelial cell migration in response to VEGF” value is given as “inhibited endothelial cell migration significantly”. Moreover, in the data set on STAT-3, the “increase in pSTAT-3 expression over PBS treated control” value is 2-3 times. In addition, the radiosensitizing effects result in data set [1] is listed as “does not produce radiosensitizing effects”. Further, in the data set with melanoma cell lines (0-20 ng/ml, 4 days), the “death in melanoma cells” value was “dose-dependent death”. Besides, in the data set on melanoma cell lines (40 ng/ml for 3 days), the “melanoma lines showing cytotoxicity” value is reported as 5 of 6.
